Results from patent US20250129166A1 (Five Prime, published 2025).
Changes are numbered by the printed parent chain.

B1: P1-068761_H100G_E100fF (antibody, human IgG1, kappa, V domains shown)
VH: EVQLVESGGGLVQPGKSLRLSCAASGFTLEDEAMHWVRQAPGKGLEWVSGINWNSEEIGYADSVKGRFTISRDNAKNSLYLQMNSLRTEDTALYYCAKVPGYSGGWIDAFDVWGQGTMVTVSS
VL: not shown
notes: also called P1-070880
B2: P1-068761_E30D_E32Y (antibody, human IgG1, kappa, V domains shown)
VH: B1 VH with E30D, E32Y, G104H, F110E
VL: not shown
notes: also called P1-070876
B3: P1-068761_E32Y_E55A (antibody, human IgG1, kappa, V domains shown)
VH: B1 VH with E32Y, E56A, G104H, F110E
VL: not shown
notes: also called P1-070882
B4: P1-068761_E32Y_E56N (antibody, human IgG1, kappa, V domains shown)
VH: B1 VH with E32Y, E57N, G104H, F110E
VL: not shown
notes: also called P1-070884
B5: P1-068761_E32Y (antibody, human IgG1, kappa, V domains shown)
VH: B1 VH with E32Y, G104H, F110E
VL: not shown
notes: also called P1-070866
B6: P1-068761_E55A_E100fF (antibody, human IgG1, kappa, V domains shown)
VH: B1 VH with E56A, G104H
VL: not shown
notes: also called P1-070898
B7: P1-068761_E32Y_E100fF (antibody, human IgG1, kappa, V domains shown)
VH: B1 VH with E32Y, G104H
VL: not shown
notes: also called P1-070888
B8: P1-068761_E30D_E100fF (antibody, human IgG1, kappa, V domains shown)
VH: B1 VH with E30D, G104H
VL: not shown
notes: also called P1-070896
B9: P1-068761_E32Y_H100G (antibody, human IgG1, kappa, V domains shown)
VH: B1 VH with E32Y, F110E
VL: not shown
notes: also called P1-070886
B10: P1-068761_E100fF (antibody, human IgG1, kappa, V domains shown)
VH: B1 VH with G104H
VL: not shown
notes: also called P1-070874
B11: P1-068761_E56N_E100fF (antibody, human IgG1, kappa, V domains shown)
VH: B1 VH with E57N, G104H
VL: not shown
notes: also called P1-070902
B12: P1-068761_E30D (antibody, human IgG1, kappa, V domains shown)
VH: B1 VH with E30D, G104H, F110E
VL: not shown
notes: also called P1-070864
B13: P1-070868 (P1-068761_E55A) IgG1.3 (antibody, V domains shown)
VH: B1 VH with E56A, G104H, F110E
VL: not shown
notes: IgG1.3
B14: P1-068761_E30D_E55A (antibody, human IgG1, kappa, V domains shown)
VH: B1 VH with E30D, E56A, G104H, F110E
VL: not shown
notes: also called P1-070890
B15: P1-068761_E56N (antibody, human IgG1, kappa, V domains shown)
VH: B1 VH with E57N, G104H, F110E
VL: not shown
notes: also called P1-070870
B16: P1-068761_H100G (antibody, human IgG1, kappa, V domains shown)
VH: B1 VH with F110E
VL: not shown
notes: also called P1-070872
B17: P1-068761_E30D_E56N (antibody, human IgG1, kappa, V domains shown)
VH: B1 VH with E30D, E57N, G104H, F110E
VL: not shown
notes: also called P1-070892
B18: P1-068761_E55A_E56N (antibody, human IgG1, kappa, V domains shown)
VH: B1 VH with E56A, E57N, G104H, F110E
VL: not shown
notes: also called P1-070878
B19: P1-068761_E56N_H100G (antibody, human IgG1, kappa, V domains shown)
VH: B1 VH with E57N, F110E
VL: not shown
notes: also called P1-070900
B20: P1-068761_E30D_H100G (antibody, human IgG1, kappa, V domains shown)
VH: B1 VH with E30D, F110E
VL: not shown
notes: also called P1-070894
B21: P1-071757 (P1-061029_HC_K16R_T84A, FW revertant) (antibody, V domains shown)
VH: B1 VH with K16R, E30D, E32Y, E56A, E57N, T88A
VL: not shown
notes: VH/VL only
B22: P1-071759 (P1-061029_HC_K16R, FW revertant) (antibody, V domains shown)
VH: B1 VH with K16R, E30D, E32Y, E56A, E57N
VL: not shown
notes: VH/VL only
B23: P1-071761 (P1-061029_HC_T84A, FW revertant) (antibody, V domains shown)
VH: B1 VH with E30D, E32Y, E56A, E57N, T88A
VL: not shown
notes: VH/VL only
B24: P1-072006 (P1-061029_Y32E) (antibody, human IgG1, kappa, V domains shown)
VH: B1 VH with E30D, E56A, E57N
VL: not shown
notes: also called P1-72006
B25: P1-072002 (P1-061029_F100fE) (antibody, human IgG1, kappa, V domains shown)
VH: B1 VH with E30D, E32Y, E56A, E57N, F110E
VL: not shown
notes: also called P1-72002

Biological target: T1, monovalent hVISTA-ECD (amino acids 32-193 of SEQ ID NO: 1 with a 7xHis tail) (human, UniProt Q9H7M9 33-193)
T1 construct: also called huVISTA-His; human VISTA-ECD
Assay: SPR, mAb captured on Protein A, hVISTA-ECD analyte, 37 C, pH 7.4
Procedure: (§1) Binding kinetics were measured using a Biacore® T100 instrument (GE Healthcare). Protein A (ThermoFisher Scientific catalog #21181) was diluted to 20 μg/ml in 10 mM sodium acetate pH 4.5 and immobilized onto flow cells of a CM5 biosensor following the manufacturer's amine coupling protocol (GE Healthcare), targeting 2,000 RU immobilization density of Protein A per flow cell. The assay was conducted at 37° C. using PBST (137 mM sodium chloride, 2.7 mM potassium chloride, 10 mM phosphate buffer, 0.05% Tween 20) running buffer at pH 7.4, 6.7 and 6.0. Antibodies were diluted to 25 nM in PBST pH 7.4, and were captured across active biosensor flow cells at 5 ul/min for 40 seconds. A concentration series of 100-10 nM monovalent hVISTA-ECD (SEQ ID NO: 325) was prepared in pH 7.4, 6.7 and 6.0 running buffers, and was injected over the captured antibodies at 40 ul/min to measure association and dissociation. Two 15 second injections of 10 mM glycine pH 1.5 were used to regenerate the Protein A capture surface between assay cycles. Rate constants ka (kon) and kd (koff) were derived from reference flow cell and 0 nM blank-subtracted sensorgrams, and were fit to a 1:1 binding model in Biacore® T200 Evaluation Software v.2.0.
(§2) The affinity constant, KD was calculated as the ratio of rate constants koff/kₒₙ for each VISTA antibody. The % Rmax was calculated to compare how pH affects an antibody's binding capacity for VISTA, and represents the measured maximal VISTA binding response relative to the expected maximal VISTA binding response. The % Rmax is defined as the ratio of the reference-subtracted ‘binding’ report point response at the end of the 100 nM VISTA injection for each antibody (Rmax) relative to the expected VISTA binding response (Rexp). Rexp is calculated as Rexp=[(VISTA-ECD molecular weight/mAb molecular weight)×(mAb ‘capture’ report point response (RUs)]×2 binding sites per mAb.

T1 sequence (Q9H7M9 other isoform, or with tags, fused parts or gaps limits assumed): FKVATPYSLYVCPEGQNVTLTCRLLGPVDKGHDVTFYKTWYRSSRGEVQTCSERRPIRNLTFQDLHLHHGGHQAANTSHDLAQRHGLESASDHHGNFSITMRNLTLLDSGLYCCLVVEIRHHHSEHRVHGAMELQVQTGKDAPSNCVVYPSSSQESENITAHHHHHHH

Binder	koff [s⁻¹]
B1	0.0023
B2	0.0035
B3	0.0027
B4	0.0032
B5	0.0025
B6	0.0017
B7	0.0019
B8	0.0035
B9	0.0055
B10	0.0013
B11	0.003

Biological target: T1, monovalent hVISTA-ECD (amino acids …)
Assay: SPR, mAb captured on Protein A, hVISTA-ECD analyte, 37 C, pH 6.0
Procedure: as §1, §2

Binder	koff [s⁻¹]
B12	0.0062
B1	0.00021
B13	0.0017
B14	0.0074
B2	0.00071
B15	0.0055
B16	0.0052
B3	0.00057
B17	0.034
B4	0.0007
B18	0.0056
B19	0.0081
B5	0.00041
B6	0.00018
B7	0.0011
B8	0.00033
B20	0.021
B9	0.00092
B10	0.00013
B11	0.00038

Biological target: T1, monovalent hVISTA-ECD (amino acids …)
Assay: SPR, mAb captured on Protein A, hVISTA-ECD analyte, 37 C, pH 6.7
Procedure: as §1, §2

Binder	koff [s⁻¹]
B12	0.018
B1	0.0004
B13	0.0064
B2	0.00099
B16	0.014
B3	0.0006
B4	0.00083
B18	0.029
B5	0.00064
B6	0.00028
B7	0.00095
B8	0.00057
B9	0.0013
B10	0.00022
B11	0.00061

Biological target: T1, monovalent hVISTA-ECD (amino acids …)
Assay: SPR, mAb on Protein A, 37C, pH 6.0
Procedure: (§3) Binding of several preparations of each of the '029 progeny clones and of the parent '029 antibodies, formatted as IgG1.3 antibodies, to human VISTA at pH 6.0 and 7.4 was measured by Surface plasmon resonance (SPR). SPR analysis was performed to measure koff and KD binding affinity measurements for VISTA Abs at acidic and neutral pHs using a Biacore® T100 instrument (GE Healthcare). Protein A (ThermoFisher Scientific catalog #21181) was diluted to 20 μg/ml in 10 mM sodium acetate pH 4.5 and immobilized onto flow cells of a CM5 biosensor following the manufacturer's amine coupling protocol (GE Healthcare), targeting 2,000 RU immobilization density of Protein A per flow cell. SPR experiments were conducted at 37° C. using PBST (137 mM sodium chloride, 2.7 mM potassium chloride, 10 mM phosphate buffer, 0.05% Tween® 20) running buffer at pH 7.4 and 6.0. Antibodies were diluted to 25 nM in PBST pH 7.4, and were captured across active biosensor flow cells at 5 ul/min for 60 seconds. A concentration series of 50-5 nM monovalent hVISTA-ECD (SEQ ID NO: 325) was prepared in pH 7.4 and 6.0 running buffers, and was injected over the captured antibodies at 40 ul/min to measure association and dissociation. Two 15 second injections of 10 mM glycine pH 1.5 were used to regenerate the Protein A capture surface between assay cycles. Rate constants ka (kₒₙ) and kd (koff) were derived from reference flow cell and 0 nM blank-subtracted sensorgrams, and were fit to a 1:1 binding model in Biacore® T200 Evaluation Software v.2.0. The affinity constant, KD was calculated as the ratio of rate constants koff/kₒₙ for each VISTA antibody.

Binder	Kd [nM]	koff [s⁻¹]	kon [M⁻¹ s⁻¹]
B21	7.3	0.0059	810000
B22	7.4	0.0059	800000
B23	6.9	0.006	870000
B24	3.5	0.0012	340000
B25	2.5	0.0016	650000

Biological target: T1, monovalent hVISTA-ECD (amino acids …)
Assay: SPR, mAb on Protein A, 37C, pH 6.0; pH 6.0
Procedure: as §3

Binder	Kd [nM]	koff [s⁻¹]	kon [M⁻¹ s⁻¹]
B13	7	0.0018	260000

Biological target: T1, monovalent hVISTA-ECD (amino acids …)
Assay: SPR, mAb on Protein A, 37C, pH 7.4
Procedure: as §3

Binder	Kd [nM]	koff [s⁻¹]	kon [M⁻¹ s⁻¹]
B21	45	0.0059	130000
B22	46	0.006	130000
B23	40	0.006	150000
B24	540	0.0063	12000
B25	190	0.0085	44000
